Experimental data: US20050064507A1, “Determining kinase specificity” (priority 2003, published 2005)

Experiments:
Assay type in all cases: biochemical
[1] = target: T1, PKC-delta (Homo sapiens, UniProt Q05655); assay: In vitro kinase assay: peptide phosphorylation by PKC-delta
T1 construct: purchased Calbiochem
How it was run: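 Biotin-Lys-dansyl-Lys-Pro-Pro-Gly-linked proteomic peptides (12–21-residue core) phosphorylated by PKC-delta in HEPES/Triton/CaCl2/MgCl2 buffer with phosphatidyl serine and PMA, 100 μM [γ-32P]ATP, 30° C., ~10 min, stoichiometry ≤5%; streptavidin-plate capture. Signal normalized as % of best peptide substrate.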

[2] = target: T2, PKC-zeta (Homo sapiens, UniProt Q05513); assay: In vitro kinase assay: peptide phosphorylation by PKC-zeta
T2 construct: purchased Calbiochem
T2 sequence (Q05513 1-592): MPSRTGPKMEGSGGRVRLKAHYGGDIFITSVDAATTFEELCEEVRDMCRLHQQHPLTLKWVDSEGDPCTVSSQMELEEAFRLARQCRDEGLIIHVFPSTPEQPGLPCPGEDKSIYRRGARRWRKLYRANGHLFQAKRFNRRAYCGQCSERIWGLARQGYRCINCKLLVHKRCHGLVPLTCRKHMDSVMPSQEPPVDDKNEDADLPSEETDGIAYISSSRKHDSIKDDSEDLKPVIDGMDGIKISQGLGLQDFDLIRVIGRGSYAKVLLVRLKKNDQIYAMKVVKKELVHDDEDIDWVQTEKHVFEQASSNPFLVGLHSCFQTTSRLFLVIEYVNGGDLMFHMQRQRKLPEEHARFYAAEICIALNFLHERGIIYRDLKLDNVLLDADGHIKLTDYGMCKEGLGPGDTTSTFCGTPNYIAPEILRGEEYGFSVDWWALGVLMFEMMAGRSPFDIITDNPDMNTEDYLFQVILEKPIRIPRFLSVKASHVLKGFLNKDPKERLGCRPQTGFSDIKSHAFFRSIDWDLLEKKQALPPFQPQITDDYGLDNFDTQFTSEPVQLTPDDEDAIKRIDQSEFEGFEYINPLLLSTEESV
Experimental: (§1) Catalytically active preparations of the kinases of interest were either purchased or prepared. Purchased and tested active kinase preparations including the following: PKC-alpha, PKC-delta, PKC-epsilon, PKC-zeta, PKC-mu, PKA, PKG from Calbiochem, ROK alpha/ROCK-II, active from Upstate Biotechnology, and AKT1 from Panvera.
(§2) The conditions of the kinase assay and the amount of active kinase used varied with the kinase and with the accuracy needed. For a typical experiment, 5-20 ng of kinase was used per well and each peptide pool was assayed in duplicate wells. Note that the absolute amount of kinase used was not usually a critical parameter, because the desired information related to specificity of the kinase not its absolute activity, and robustness of the assay depends on comparisons of the same amount of kinase on different peptides. The combination of kinase concentration and assay duration was modified to assure that the stoichiometry of peptide phosphorylation never exceeded 5%. The choice of kinase buffer depended on the kinase being analyzed. For studies of PKC, 100 mM HEPES, 0.05% Triton-X100, 1 mM CaCl2, 20 mM MgCl2, 0.2 mg/ml phosphatidyl serine (Avanti Polar Lipids), PMA 100 ng/ml was typically used. The lipid stock was prepared by transferring 3 mg phosphatidyl serine into iced mixture of 450 μl water plus 50 μl of 10% Triton-X100, sonicating 10 times on ice for 1 sec each.
(§3) The kinase reaction mixture was assembled by sequential addition to a tube held on ice of: 5 μl peptide (100 μM for final concentration of 10 μM), 15 μl of kinase (typically 5 ng/well, in appropriate kinase buffer), 30 μl of ATP (1 uCi/well of ^32P-gamma ATP in a stock of 167 μM cold ATP in the kinase buffer; for final concentration for 100 μM ATP). The mixture was rapidly warmed to desired reaction temperature (30° C. for PKC) and incubated for the desired duration (usually 10 minutes). The kinase assay was terminated by transfer to 4° C. water batch, and rapid addition of an equal volume (50 μl) of stop solution [0.1M ATP+0.1M EDTA in water, pH 8].
(§4) The peptides were then captured from the reaction mixture by transfer to a Reacti-Bind Streptavidin High Binding Capacity Coated Plates (HBC) (Pierce Biotechnology) as follows. The HBC plates were pre-rinsed three times with PBS/Tween PBS/Tween20 0.05% (PBS/Tween). Part of all of the reaction mixture was then transferred wells of a HBC plate pre-filled with 90 μl of phosphate-buffered saline (PBS); typically each aliquots of each phosphorylation reaction were transferred to duplicate HBC plates to assure accuracy by additional replication
(§5) For kinase assays done at the standard peptide concentration of 10 μM, the peptide concentration in the reaction mixture becomes 5 μM after addition of the stop solution; consequently 10 μl of the reaction (50 pMoles of peptide) was transferred to the HBC plate. More generally, the amount of reaction mixture transferred was estimated to be about 50 pMoles of peptide. […] The HBC plates were incubated for 0.5 to 1.5 hr at room temperature for complete binding of biotinylated peptides to plate-bound streptavidin. The HBC plates were then washed extensively with PBS/Tween. Five washes were done routinely and additional wash steps were added if the wash solution removed from the plate had measurable radioactivity as detected using a Geiger counter. This step is essential to obtaining a good the signal to noise ratio because the fraction of radioactivity incorporated in the peptides was a tiny fraction of the total in the reaction mixture. The wells were air-dried. A volume of 40-50 μl of microScint-20 (Packard Instruments) was added to each well. The plates were covered with stick-on film sheet. Radioactive emissions were measured in a TopCount NXT Microplate Scintillation and Luminescence Counter (Packard Instruments). Typically samples were counted for 5 minutes (or more) to improve the signal to noise ratio when counts were low. […]

[3] = target: T3, PKC-alpha (Homo sapiens, UniProt P17252); assay: In vitro kinase assay: peptide phosphorylation by PKC-alpha
T3 construct: purchased Calbiochem
Experimental: as §1, §2, §3, §4, §5

T1 sequence (Q05655 whole entry): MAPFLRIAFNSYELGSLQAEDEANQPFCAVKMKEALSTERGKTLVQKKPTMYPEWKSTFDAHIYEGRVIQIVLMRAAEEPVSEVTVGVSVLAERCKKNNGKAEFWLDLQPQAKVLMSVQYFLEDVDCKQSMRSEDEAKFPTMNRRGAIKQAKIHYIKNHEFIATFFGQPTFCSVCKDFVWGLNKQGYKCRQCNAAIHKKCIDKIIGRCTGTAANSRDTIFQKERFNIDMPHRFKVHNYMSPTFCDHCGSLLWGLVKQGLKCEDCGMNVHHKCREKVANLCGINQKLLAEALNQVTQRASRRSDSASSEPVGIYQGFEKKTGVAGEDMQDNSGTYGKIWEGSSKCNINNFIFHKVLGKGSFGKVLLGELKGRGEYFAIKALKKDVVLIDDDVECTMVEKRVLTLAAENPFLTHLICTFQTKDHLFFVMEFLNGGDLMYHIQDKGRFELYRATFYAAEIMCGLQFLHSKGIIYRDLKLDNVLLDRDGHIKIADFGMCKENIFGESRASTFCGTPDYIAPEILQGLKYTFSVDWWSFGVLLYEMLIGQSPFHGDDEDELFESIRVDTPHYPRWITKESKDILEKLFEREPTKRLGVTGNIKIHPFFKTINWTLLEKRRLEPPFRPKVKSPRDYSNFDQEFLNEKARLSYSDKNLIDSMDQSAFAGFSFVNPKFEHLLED

Substance	phosphorylation by PKC-delta ([1]; peptide concentration 1 uM)	phosphorylation by PKC-delta ([1]; peptide concentration 10 uM)	phosphorylation by PKC zeta ([2]; peptide concentration 1 uM)	phosphorylation by PKC zeta ([2]; peptide concentration 10 uM)	phosphorylation by PKC alpha ([3]; peptide concentration 1 uM)	phosphorylation by PKC alpha ([3]; peptide concentration 10 uM)
138 (EYLERRASRRRAV) [compound 138]	49	28	31	61	17	20
139 (RPTPGDGEKRSRIKKSKKRK) [compound 139]	31	24	1	1	39	44
140 (TELEGGFSRQRKRKLSFRRR) [compound 140]	44	49	24	49	12	15
141 (VTDSQKRREILSRRPSYRKI) [compound 141]	43	21	26	78	24	25
142 (ERHVAQKKSRLRRRASQLKI) [compound 142]	30	36	22	37	16	21
143 (VRYTPYTISPYNRKGSFRKQ) [compound 143]	33	32	22	79	38	19
144 (LSSMFGTLPRKSRKGSVRKQ) [compound 144]	35	28	16	54	31	20
145 (ISDFGLAKKLAVGRHSFSRR) [compound 145]	34	23	25	61	21	30
146 (QAQRQIKRGAPPRRSSIRNA) [compound 146]	33	14	32	56	20	24
147 (RDIRQSPKRGFLRSASLGRR) [compound 147]	27	13	28	34	13	16
154 (KKFFTQGWAGWRKKTSFRKP) [compound 154]	26	14	27	23	16	12
